Data taken from paper PMC5414047.

Assays:
[1] = target: TβRII (TGF-β type II receptor) (UniProt P37173); assay: Flag-FAF1 co-IP, immunoblot; settings: reference: wild type; sites S582
[2] = target: VCP (valosin-containing protein) (UniProt P55072); assay: Flag-FAF1 co-IP, immunoblot; settings: reference: wild type; sites S582

FAF1 (FAS-associated factor 1) (from UniProt Q9UNN5) S582A
binding against the reference [1]: stronger
binding against the reference [2]: stronger
